Measured values published in patent publication US20060239990A1, “Protein Arginine N-Methyltransferase 2 (PRMT-2)” (priority 2003, published 2006).

B1: PRMT2-Flag: Flag-tagged wild-type mouse PRMT2 fusion protein purified from transfected HEK293 cells (protein)
chain: MEAPGEGPCSESQVIPVLEEDPVDYGCEMQLLQDGAQLQLQLQPEEFVAIADYTATDETQLSFLRGEKILILRQTTADWWWGERAGCCGYIPANHLGKQLEEYDPEDTWQDEEYFDSYGTLKLHLEMLADQPRTTKYHSVILQNKESLKDKVILDVGCGTGIISLFCAHHARPKAVYAVEASDMAQHTSQLVLQNGFADTITVFQQKVEDVVLPEKVDVLVSEWMGTCLLFEFMIESILYARDTWLKGDGIIWPTTAALHLVPCSAEKDYHSKVLFWDNAYEFNLSALKSLAIKEFFSRPKSNHILKPEDCLSEPCTILQLDMRTVQVPDLETMRGELRFDIQKAGTLHGFTAWFSVYFQSLEEGQPQQVVSTGPLHPTTHWKQTLFMMDDPVPVHTGDVVHGFCCVTKKSGMEKAHVCLSELGCHVRTRSHVSTELETGSFRSGGDS
modifications: left off: small tags and cut ends
notes: Flag-tagged wild-type mouse PRMT2 fusion protein purified from transfected HEK293 cells
B2: leptin: recombinant mouse leptin (Sigma-Aldrich Inc.) (protein, UniProt P41160 22-167, looked up)
Leptin: VPIQKVQDDTKTLIKTIVTRINDISHTQSVSAKQRVTGLDFIPGLHPILSLSKMDQTLAVYQQVLTSLPSQNVLQIANDLENLRDLLHLLAFSKSCSLPQTSGLQKPESLDGVLEASLYSTEVVALSRLQGSLQDILQQLDVSPEC

Assays:
GST-Stat3 = target: T1, GST-Stat3 (Mus musculus, UniProt P42227); assay: In vitro methylation assay of GST-Stat3; assay type: biochemical; settings: Flag fusion protein from transfected HEK293 cells, [3H]-AdoMet
T1 construct: The same region with the Arg31→Ala mutant was generated from the wild-type pGEX6P-3 STAT3 construct; made in house; host or cells: E. coli (BL21 (DE3); Top10 One Shot)
Method: 293 cells were transiently transfected with expression vectors encoding Flag-tagged wild-type or mutant mouse PRMT2. After incubation for 48 hr, cells were lysed with 500 μl of RIPA buffer and 1.8 mg of 293 cell lysates was incubated with 40 μl of Anti-Flag M2 Affinity Gel (Sigma) for 3 hr at 4° C. Immune complexes were washed three times with lysis buffer without proteinase inhibitor and subjected to in vitro methylation reaction. Mouse fibroblasts were grown to 80% confluence on a 10 cm plate. Cells were washed and scraped off the plate into 500 μl of PBS (pH 7.4), and were lysed by sonication. After centrifugation at 15,000 rpm for 10 min at 4° C., the supernatants were used as the enzyme source. In vitro methylation reactions were performed by adding the immune complexes or cell lysates to 0.64 μg Histone and/or 1 μg of GST, GST-STAT3 or GST-STAT3 Arg31→Ala31 using 2 μCi of the methyl donor S-adenosyl-1[methyl-3H]methionine ([3H]-AdoMet) (Amersham Biosciences) in a final volume of 35 μl. The reactions were incubated for 1 hr at 4° C. and were terminated by addition of 3×SDS-loading buffer. […]

[1] = Leptin sensitivity study in mice; assay type: in vivo, mouse; settings: for food intake: after administration of leptin
Method: To determine leptin sensitivity, 9- to 13-week-old mice, matched for similar body weight at both day 4 and day 0, were individually caged and body weight and food intake were measured once daily (5:30 pm) throughout the experiment. For the first 7 days, mice were injected intraperitoneally twice daily (12:00 pm and 6:00 pm) with PBS to establish a baseline of weight change and food intake. […] Body weight and food intake was measured once a day during the experiment.

[2] = test system: hypothalamic POMC and NPY mRNA; assay: Leptin treatment, hypothalamic POMC and NPY mRNA by real-time PCR; assay type: in vivo, mouse; settings: for weight loss: leptin 0.5 μg/g body weight
Method: Mice in the 8-12 week of age allowed free access to chow and water were intraperitoneally injection for 3 days with either PBS or recombinant mouse leptin (Sigma) at a dose of 0.5 μg/g body weight twice a daily (9:00 am and 7:00 pm). Hypothalamus was isolated from the mice at 6 hr after leptin treatment and snap-frozen. Total hypothalamic RNA was isolated using Trizol (Invitrogen) according to the manufacturer's instructions. Total RNA was treated with ribonuclease-free deoxyribonuclease (DNase) I for 30 min using a commercially available kit (Invitrogen) to eliminate contamination of genomic DNA. The RNA samples were reverse transcribed with TaqMan Reverse Transcription Reagents (Applied Biosystems, Foster City, Calif.) and subjected to automated fluorescent RT-PCR on an ABI PRISM 7700 Sequence Detection System (Applied Biosystems). All TaqMan probes were labeled with the reporter fluorescein at the 5′-end and with the quencher tetramethylrhodamine at the 3′-end. The following oligonucleotides derived form the mouse POMC and NPY were synthesized and used as primers and probes for Real-time PCR: POMC (sense, 5′-[…]-3′ (SEQ ID NO:42), antisense, 5′-[…]-3′ (SEQ ID NO:43), probe, 5′-6FAM-[…]-TAMRA-3′, SEQ ID NO:44); NPY (sense, 5′-[…]-3′ (SEQ ID NO:45), antisense, 5′-[…]-3′ (SEQ ID NO:46) probes, 5′-6FAM-[…]-TAMRA-3′ (SEQ ID NO:47)). TaqMan Rodent GAPDH Control Reagents (Applied Biosystems) were used as a control primers and probe for each template. Each predicted RT-PCR product spanned an intron/exon junction. The reactions were incubated for 2 min at 50° C., followed by 10 min at 95° C., and then 40 cycles of 15 sec at 95° C. and 1 min at 60° C. Each RT-PCR reaction was performed in triplicate in a final volume of 20 μl and assessed by the comparative Ct (ΔΔCt) method (Applied Biosystems, ABI Prism 7700 Users Bulletin #2).

Stat3 = assay: Leptin-stimulated Stat3 immunoprecipitation and immunoblotting (methylation, PRMT-2 association); assay type: cell-based, mouse; settings: leptin 100 nM
Method: Immunoprecipitation of STAT3 was performed as follows. Cells treated with or without 100 nM mouse leptin for selected times were washed with phosphate buffered saline and lysed in Nonidet P-40 (NP-40) buffer (20 mM Tris-HCl, pH 8.0, 150 mM NaCl, 25 mM EDTA, 1.0% Triton-X, 0.1% SDS, 10% glycerol, 100 mM NaF, 100 mM Na3P2O7, 1.0% deoxycholic acid, 1 mM Na3VO4, 1× protease inhibitors cocktail; Roche Diagnostic Corp., Indianapolis, Ind.) or RIPA buffer (50 mM Tris-HCl, pH 8.0, 150 mM NaCl, 1% NP-40, 0.5% Na-deoxycholate, 0.1% SDS, 1× protease inhibitors cocktail). After the lysates were incubated to solubilize proteins for 30 min at 4° C., and before they were centrifuged at 15,000 rpm for 10 min at 4° C., the supernatants were rocked with either polyclonal anti-STAT3 antibodies (1:2,000) or monoclonal anti-Flag antibodies for 14 hr at 4° C., and then with protein G agarose for 3 hr at 4° C. For in vitro stimulation, the supernatants from extracted tissue homogenates were rocked with 2 μg polyclonal anti-IRS-1 antibody, and then protein G agarose for 3 hr at 4° C. The beads were washed three times with lysis buffer without proteinase inhibitors, solubilized in 15 μl 3×SDS-polyacrylamide gel electrophoresis (PAGE) buffer (187.5 mM Tris-HCl, 6% SDS, 30% glycerol, 150 mM dithiothreitol, 0.3% bromophenol blue, pH6.8), and subjected to the immunoblotting.
Immunoblotting was performed by boiling samples for 5 min at 95° C. followed by centrifugation for 1 min at 4° C. Aliquots of the supernatant were subjected to 7.5, 10% or 4-15% SDS-PAGE. Proteins in the gel were transferred to a nitrocellulose membrane by electroblotting. The membranes were treated with either anti-pTyr, anti-STAT3, anti-phospho STAT3, anti-α-metR, anti-IRS-1, anti-Flag, anti-phospho IRS-1, anti-arginine (mono- and di-methyl), or anti-β-actin antibodies followed by incubation with secondary antibodies conjugated with HRP. Immunoreactive proteins were detected either by ECL or by ECL plus system (Amersham Pharmacia Biotech). In some cases, bands were quantified using the NIH Image software (Image J version 1.2; National Institutes of Health, Bethesda, Md.). The figures are representative of 3 experiments.

hypothalamic Stat3 = assay: Phospho-Stat3 immunohistochemistry of hypothalamus after leptin; assay type: in vivo, mouse; settings: wild-type mice, leptin 1.67 μg/g body weight peripheral
Method: After overnight fasting, brains of wild-type and PRMT2−/− mice treated with or without mouse leptin (1.67 μg/g body weight) for 90 min were removed immediately after decapitation, frozen in 2-methylbutane with a bed of crushed dry ice for 6 sec. 16-μm thick coronal sections were cut on a cryostat at −20° C. and were thaw-mounted on slides (K•D Medical Inc., Columbia, Md.). Sections were fixed with acetone for 10 min at 4° C. and then incubated in methanol for 30 min at −20° C. After treatment with 0.3% H2O2 in methanol for 30 min at room temperature to block endogenous peroxidase, sections were blocked in Tris-buffered saline (TBS)-Ca (100 mM Tris-HCl, pH 7.4, 150 mM NaCl, 1 mM CaCl2) containing 10% normal goat serum and 3% bovine serum albumin (BSA) and incubated with a rabbit anti-pStat3 (pY705) diluted in the same blocking solution as previously described above overnight at 4° C. On the next day sections were washed three time with TBS-Ca, incubated with a biotinylated secondary goat antibody in TBS-Ca containing 1% BSA for 1 hr at room temperature and then treated with ABC solution (Vector laboratories, Inc., Burlingame, Calif.) for 1 hr. In a final step, the signal was developed by DAB solution (Vector laboratories), giving a brown precipitate, dehydrated and mounted using Permount (Sigma-Aldrich). […]

T1 sequence (P42227 1-131 limits assumed): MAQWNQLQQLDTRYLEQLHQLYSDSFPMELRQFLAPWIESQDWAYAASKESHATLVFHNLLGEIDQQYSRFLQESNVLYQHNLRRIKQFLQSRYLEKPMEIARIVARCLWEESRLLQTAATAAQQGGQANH

Row | methylation of GST-Stat3 (GST-Stat3) | Molecule | food intake ([1]; PRMT2−/− mice) [%] | weight change ([1]; PRMT2−/− mice, leptin 0.1 μg/g) | food intake ([1]; wild-type mice) | weight change ([1]; wild-type mice, leptin 0.1 μg/g peripheral injection, for 5 days) [g] | higher level of hypothalamic POMC mRNA compared with leptin-treated wild-type mice ([2]; PRMT2−/− mice, leptin 0.5 μg/g) [%] | hypothalamic NPY mRNA expression ([2]; PRMT2−/− mice, leptin 0.5 μg/g) | weight loss ([2]; PRMT2−/− mice) [g] | increase of hypothalamic POMC mRNA compared with untreated mice ([2]; wild-type mice, leptin 0.5 μg/g) [%] | weight loss ([2]; wild-type mice) [g] | PRMT-2 co-precipitated with STAT3 (Stat3; GT1-7 cells) | Stat3 methylation (Stat3; GT1-7 cells) | Stat3 methylation (Stat3; PRMT2−/− VSMC) | Stat3 methylation (Stat3; wild-type VSMC) | time of peak tyrosine phosphorylation of hypothalamic Stat3 (hypothalamic Stat3) [min]
1 | could methylate GST-Stat3 | B1 | – | – | – | – | – | – | – | – | – | – | – | – | – | –
2 | – | B2 | ~92 | continuously lost weight for the duration of the study | did not alter food intake | -0.158 | ~90 | significantly reduced | -1.0 ± 0.2 | ~53 | -0.59 ± 0.29 | enhanced that amount PRMT-2 that co-precipitated with STAT3 | remarkably increased at 5 min and sustained for 60 min | increased Stat3 methylation was not observed | evoked a transient methylation of Stat3 at 10 min | 45
